Experimental data: paper PMC12302606, “The SlDOF9‐SlSWEET17 Module: a Switch for Controlling Sugar Distribution Between Nematode Induced Galls and Roots in Tomato”

Target: SlDOF9-His (Solanum lycopersicum, UniProt A0A3Q7FC45 1-258)
Assay: EMSA (supershift); anti-His antibody; Biotin-labeled and unlabeled probes with purified protein and anti-His antibody, room temperature, 30 min; buffer from kit, salt and pH not stated
Conditions: protein: recombinant, tags: C-terminal His, blunt

Chain of SlDOF9-His (A0A3Q7FC45 entry or part of it): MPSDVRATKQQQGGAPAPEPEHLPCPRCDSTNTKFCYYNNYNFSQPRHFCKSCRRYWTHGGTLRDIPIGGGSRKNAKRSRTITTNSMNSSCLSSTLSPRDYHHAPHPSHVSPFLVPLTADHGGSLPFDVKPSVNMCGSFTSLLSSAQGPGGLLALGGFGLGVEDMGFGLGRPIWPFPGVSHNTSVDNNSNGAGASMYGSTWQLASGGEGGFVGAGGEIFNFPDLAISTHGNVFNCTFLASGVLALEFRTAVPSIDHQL

| Binder | binding result (label: biotin (labeled probe)) | binding result |
| --- | --- | --- |
| TS1 (dsDNA) DNA 1: AAAAAGTGATAAGAAAAAACATCCAAGCCCT DNA 2: AGGGCTTGGATGTTTTTTCTTATCACTTTTT | binds | – |
| TS1m (dsDNA) DNA 1: AACATGTGATAAGAAAAAACATCCAAGCCCT DNA 2: AGGGCTTGGATGTTTTTTCTTATCACATGTT | – | no binding |
| TS2 (dsDNA) DNA 1: AGCCAGAAAAGAAAATACAATAATTCTCATT DNA 2: AATGAGAATTATTGTATTTTCTTTTCTGGCT | binds | – |
